Results reported in patent US20090123940A1, “MOLECULES INVOLVED IN SYNAPTOGENESIS AND USES THEREFOR” (THE JOHNS HOPKINS UNIVERSITY, priority 2007, published 2009).
Marks after values point to notes of the source that are not given here.

Columns and labels:
[1] = tested on: GluR1 expressing 293 cells; assay: Co-culture of separately transfected 293 cells, intercellular clustering; format: cell-based
Text: To evaluate whether Narp could mediate intercellular aggregation of GluR1, similar to that expected at a synapse, myc-tagged Narp and GluR1 were expressed separately in 293 cells and subsequently co-cultured together. Under these conditions, surface Narp clusters on one cell could induce large surface GluR1 aggregates on another. In a total of 109 contacts between a GluR1 expressing transfected cell and a Narp expressing cell, there was a mean of 1.2+/−0.75 large overlapping GluR1/myc-Narp clusters at these sites of contact. […] Moreover, the number of GluR1 clusters at sites of contact with non-Narp expressing 293 cells was extremely low [0.07 R1 clusters per contact with a GluR2 expressing cell (n=76); 0.03 R1 clusters per contact with a Pick1/GluR2 expressing cell (n=58)]. The interaction between GluR1 and Narp required contact between the heterologous cells, as there was no evidence that Narp could diffuse from one cell and induce GluR1 clusters on another.

cultured spinal neurons = assay: Narp overexpression in transfected cultured spinal neurons; format: cell-based
Protocol: In order to characterize the synaptic targeting of Narp in neurons, a C-terminal myc-tagged version of Narp (designated myc-Narp) was transfected into cultured spinal neurons (Dong et al., Nature 386:279-84, 1997). After 72 hours of expression, live staining with an anti-myc (mouse) antibody, followed by a FITC labeled anti-mouse secondary, was used to reveal the surface distribution of the transfected Narp. Subsequent staining of the same cells, after fixation and permeabilization, with an AMCA labeled anti-myc (rabbit) antibody was used to identify transfected neurons and their axons and dendrites, while GluR1 and GAD staining were used to identify excitatory and inhibitory synapses, respectively.
Given the presence of Narp on both pre and postsynaptic processes and the biochemical propensity of pentraxins to form head to head multimeric aggregates (Emsley et al., Nature 367, 338-45, 1994; Gewurz et al., Curr. Opin. Immunol. 7:54-64, 1995; Bottazzi et al., J. Biol. Chem. 272:32817-23, 1997), the possibility that Narp may function to facilitate the formation of excitatory synapses was explored. Thus, the number of synaptic GluR1 clusters (i.e., GluR1 clusters associated with synaptophysin staining) in transfected neurons over expressing myc-Narp was compared with the number of synaptic GluR1 clusters in untransfected neurons or in neurons transfected with a control plasmid containing the C-terminus of the NMDA receptor subunit NR1A (NR1CT).

[2] = tested on: GluR1 on cultured spinal neurons; assay: Co-culture of myc-Narp expressing 293 cells with spinal neurons; format: cell-based
Protocol: The neurons and transfected HEK-293 cells were cocultured for 48 hours and then fixed and stained for myc-Narp, GluR1 and synapsin. When contacts between myc-Narp expressing 293 cells and GluR1 expressing spinal neurons were examined for overlapping myc-Narp/GluR1 clusters, 64% (82/128) of the myc-Narp clusters in contact with the neuron overlapped with neuronal GluR1 clusters (mean of 2.6+/−1.5 overlapping myc-Narp/GluR1 clusters per 293-neuron contact).

[3] = molecular target: T1, HA GluR1 surface diffusion (Homo sapiens, UniProt P42261, A320G/C323G/D322G/DEL281-317/N319G); assay: Single Quantum Dot Tracking of HA-tagged receptors on hippocampal neurons; format: cell-based, mouse; details: 7 D. I. V., Narp transgene
T1 construct: expressed in transfected cells; host or cells: dissociated mouse hippocampal neurons (P1-3 pups)
Protocol: (§1) Single Quantum Dot (QD) Tracking. Hippocampal neurons were prepared from postnatal days 1-3 mouse pups and cultured in Banker Style conditions to 6 D. I. V., 8 D. I. V., or 11 D. I. V. Cultured hippocampal neurons were transfected as above. 0.5 μL of QD 655 mouse IgG (QuantumDot Corporation) was incubated with 0.8 μg of HA antibody (Santa Cruz) in a 20 μL volume of PBS for 1 hour at room temperature. Neurons were incubated in a 1:500 dilution of this QD solution for 15 minutes at 37° C., 5% CO2. After brief washes with culture media, the neurons were mounted on a live imaging chamber with culture media/10 mM Hepes. Transfected neurons were identified based on GFP fluorescence. 100 millisecond exposure images were collected from neurons at a frequency of 2.67 Hz for 60 seconds with a coolsnap HQ (Photometrix). The graphical and numerical representation of the trajectory of each QD was extracted from each stack of images using the Motion Analysis Package of Metamorph (Universal Imaging Corporation). The numerical representation of the trajectory was used to calculate a diffusion coefficient using MSD software. Analysis was performed blinded.
(§2) Narp reduces surface diffusion of GluR1 but not GluR1ΔNAR1. GluR1ΔNAR1 was used to examine the hypothesis that Narp and NP1 function to limit the diffusion of receptors, and thereby recruit GluR1 to synapses. As part of a validation of GluR1ΔNAR1 for cell biological studies it was confirmed that it retained agonist-dependent channel activity. […] The mobility of HA GluR1 relative to HA GluR1ΔNAR1 on the surface of neuronal dendrites were compared using 5 nm fluorescent Quantum Dots (QDs) and Single Quantum Dot Tracking (SQDT). Dissociated hippocampal cultures (DIV 6) were transfected with HA GluR1-IRES2-GFP or HA-GluR1ΔNAR1-IRES2-GFP. […] QD-HA-GluR1 and QD-HA-GluR1ΔNAR1 were visualized by live, time-lapse fluorescence imaging. The trajectories of QD-coupled receptors were determined by the position of the QD in each frame, and the receptor diffusion coefficients were calculated from QD trajectories over multiple trials. […]

[4] = molecular target: T2, HA GluR1 surface diffusion (Homo sapiens, UniProt P42261); assay: as above; format: cell-based, mouse
T2 construct: expressed in transfected cells; host or cells: dissociated mouse hippocampal neurons (P1-3 pups)
Protocol: as §1, §2

[5] = transfected neurons, +/- S.D., 5 experiments

T2 sequence (P42261 19-906): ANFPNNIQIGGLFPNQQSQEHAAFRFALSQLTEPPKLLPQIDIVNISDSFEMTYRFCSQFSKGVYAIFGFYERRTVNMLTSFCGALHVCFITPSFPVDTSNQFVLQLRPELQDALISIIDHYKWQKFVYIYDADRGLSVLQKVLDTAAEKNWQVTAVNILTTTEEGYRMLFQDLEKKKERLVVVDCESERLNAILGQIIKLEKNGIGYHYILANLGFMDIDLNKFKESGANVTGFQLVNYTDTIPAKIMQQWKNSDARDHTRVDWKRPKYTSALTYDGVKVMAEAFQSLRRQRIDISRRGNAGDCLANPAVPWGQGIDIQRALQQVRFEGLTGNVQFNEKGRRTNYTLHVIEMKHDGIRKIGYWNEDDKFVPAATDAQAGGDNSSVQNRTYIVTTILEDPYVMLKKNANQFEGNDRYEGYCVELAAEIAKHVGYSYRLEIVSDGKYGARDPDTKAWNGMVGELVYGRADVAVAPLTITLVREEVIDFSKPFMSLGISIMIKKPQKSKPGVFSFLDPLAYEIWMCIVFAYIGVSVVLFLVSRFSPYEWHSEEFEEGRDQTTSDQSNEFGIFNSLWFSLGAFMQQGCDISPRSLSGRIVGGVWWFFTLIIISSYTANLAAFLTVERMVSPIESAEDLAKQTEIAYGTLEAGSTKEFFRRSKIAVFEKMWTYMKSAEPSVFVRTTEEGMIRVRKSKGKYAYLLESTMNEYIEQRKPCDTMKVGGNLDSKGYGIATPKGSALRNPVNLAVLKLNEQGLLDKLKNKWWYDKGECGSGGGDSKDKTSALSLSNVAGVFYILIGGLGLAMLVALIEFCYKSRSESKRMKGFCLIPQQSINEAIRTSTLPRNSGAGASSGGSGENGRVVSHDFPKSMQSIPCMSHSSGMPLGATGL
T1 sequence (P42261 with tags, fused parts or gaps DEL281-317/N319G/A320G/D322G/C323G): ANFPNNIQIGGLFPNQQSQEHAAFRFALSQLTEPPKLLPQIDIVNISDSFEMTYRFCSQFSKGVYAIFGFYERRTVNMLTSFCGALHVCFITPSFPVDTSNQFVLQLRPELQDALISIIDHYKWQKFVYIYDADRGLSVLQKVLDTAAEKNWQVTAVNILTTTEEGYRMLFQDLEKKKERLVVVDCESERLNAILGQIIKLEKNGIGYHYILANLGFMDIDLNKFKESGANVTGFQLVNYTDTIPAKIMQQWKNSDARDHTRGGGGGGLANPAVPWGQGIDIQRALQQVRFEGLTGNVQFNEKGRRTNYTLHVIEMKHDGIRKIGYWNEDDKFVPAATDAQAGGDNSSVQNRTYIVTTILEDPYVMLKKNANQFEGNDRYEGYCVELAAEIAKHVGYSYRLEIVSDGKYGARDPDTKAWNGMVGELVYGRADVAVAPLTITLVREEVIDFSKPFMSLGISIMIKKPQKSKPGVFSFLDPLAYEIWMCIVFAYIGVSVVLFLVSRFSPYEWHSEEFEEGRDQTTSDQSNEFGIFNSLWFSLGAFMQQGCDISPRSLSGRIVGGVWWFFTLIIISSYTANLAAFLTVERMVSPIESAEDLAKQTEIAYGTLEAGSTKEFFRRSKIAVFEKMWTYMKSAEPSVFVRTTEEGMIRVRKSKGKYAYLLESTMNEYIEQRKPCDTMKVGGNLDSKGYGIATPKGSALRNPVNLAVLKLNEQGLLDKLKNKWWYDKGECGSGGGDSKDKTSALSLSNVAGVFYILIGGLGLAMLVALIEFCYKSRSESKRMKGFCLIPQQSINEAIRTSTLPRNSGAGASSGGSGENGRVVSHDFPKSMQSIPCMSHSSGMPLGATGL

B1: Narp: Neuronal activity regulated pentraxin (SEQ ID NO:2), expressed by transfection, also as C-terminal myc-tagged version (protein, listed as Rattus norvegicus)
chain: MLALLTAGVALAVAAGQAQDNPIPGSRFVCTALPPEAARAGCPLPAMPMQGGALSPEEELRAAVLHWRETVVQQKETLGAQREAIRELTSKLARCEGLAGGKARGTGATGKDTMGDLPRDPGHVVEQLSRSLQTLKDRLESLELQLHTNASNAGLPSDFREVLQRRLGELERQLLRKVAELEDEKSLLHNETSAHRQKTENTLNALLQRVTELERGNSAFKSPDAFKVSLPLRTNYLYGKIKKTLPELYAFTICLWLRSSASPGIGTPFSYAVPGQANEIVLIEWGNNPIELLINDKVAQLPLFVSDGKWHHICITWTTRDGMWEAFQDGEKLGTGENLAPWHPIKPGGVLILGQEQDTVGGRFDATQAFVGELSQFNIWDRVLRAQEIINIANCSTNMPGNIIPWVDNNVDVFGGASKWPVETCEERLLDL
modifications: optional C-terminal myc tag
large overlapping GluR1/myc-Narp clusters at sites of contact ([1]; 109 contacts between a GluR1 expressing cell and a Narp expressing cell): 1.2+/−0.75
coclusters of NR1 and NR2A ([1]; n=32 contacts): 0
clusters of EAAC1 at sites of contact ([1]; n=121): 0.04+/−0.05
intercellular myc-Narp*GluR1 co-clusters ([1]; untagged Narp co-expressed with GluR1, co-cultured with cells expressing only myc-tagged Narp, n=124): 2.6+/−1.4
increase in number of synaptic GluR1 clusters compared to either control (cultured spinal neurons; five transfection experiments, p<0.01): 1.9 fold
Synaptic GluR1 Clusters (cultured spinal neurons; [5]): 13.0 +/− 3.8 **
Synaptophysin Clusters (cultured spinal neurons; [5]): 16.0 +/− 4.6 *
Neuritic Length (cultured spinal neurons; transfected neurons, permeablized myc staining at 100X, 3 experiments): 225 µm
GAD Clusters (cultured spinal neurons; transfected neurons, separate series of 3 experiments): 5.9 +/− 3.9
myc-Narp clusters in contact with the neuron overlapping with neuronal GluR1 clusters ([2]; 48 hours coculture): 64%
overlapping myc-Narp/GluR1 clusters per 293-neuron contact ([2]; 48 hours coculture): 2.6+/−1.5
bioactivity of soluble Narp collected from the media (binding to transfected 293 cells) ([2]; soluble secreted form): no bioactivity
HA-GluR1ΔNAR1 average diffusion rate [3]: not significantly altered
slowing of HA GluR1 average diffusion rate versus absence of Narp transgene ([4]; 7 D. I. V.): 58%
slowing of HA GluR1 diffusion in the presence of the Narp transgene ([4]; 9 D. I. V.): 44%
